Experimental data taken from PMC11480323.

Biological target: Cas7 of the type I-F Cas8-HNH system from Selenomonas sp. isolate RGIG9219 (Selenomonas sp. isolate RGIG9219)
Test: cryo-EM structure; Cas8-HNH Cascade-crRNA ribonucleoprotein complex in the target-free state, 3.6 Å; subunits co-expressed in E. coli with crRNA and purified as one complex

stoichiometry N: 6
Substance: Cas7 of the type I-F Cas8-HNH system from Selenomonas sp. isolate RGIG9219 (natural protein)
